According to paper PMC9374677:

Target: MBP-TNFR1^ECD deletion mutant ΔCRD2 (human) (UniProt P19438)
Assay: ITC; MicroCal PEAQ-ITC, 16 °C; […] (500–600 μM) […] (~60 μM); 20 mM Tris-HCl pH 7.5, 200 mM NaCl; […]

Substance: Staphylococcal superantigen-like protein 10 (SSL10), residues 31-227, C-terminal 6xHis (from UniProt A0A0H3K6Z9 31-227) (natural protein)
- Kd: 30.3 µM
